T1: insulin receptor-related receptor (IRR), IRR-Fc fusion protein (extracellular region of mouse IRR) (Mus musculus, UniProt Q9WTL4)
T1 construct: with an extracellular region of mouse IRR (1-920th residues); made in house; host or cells: CHO cells
T1 sequence (Q9WTL4 27-920): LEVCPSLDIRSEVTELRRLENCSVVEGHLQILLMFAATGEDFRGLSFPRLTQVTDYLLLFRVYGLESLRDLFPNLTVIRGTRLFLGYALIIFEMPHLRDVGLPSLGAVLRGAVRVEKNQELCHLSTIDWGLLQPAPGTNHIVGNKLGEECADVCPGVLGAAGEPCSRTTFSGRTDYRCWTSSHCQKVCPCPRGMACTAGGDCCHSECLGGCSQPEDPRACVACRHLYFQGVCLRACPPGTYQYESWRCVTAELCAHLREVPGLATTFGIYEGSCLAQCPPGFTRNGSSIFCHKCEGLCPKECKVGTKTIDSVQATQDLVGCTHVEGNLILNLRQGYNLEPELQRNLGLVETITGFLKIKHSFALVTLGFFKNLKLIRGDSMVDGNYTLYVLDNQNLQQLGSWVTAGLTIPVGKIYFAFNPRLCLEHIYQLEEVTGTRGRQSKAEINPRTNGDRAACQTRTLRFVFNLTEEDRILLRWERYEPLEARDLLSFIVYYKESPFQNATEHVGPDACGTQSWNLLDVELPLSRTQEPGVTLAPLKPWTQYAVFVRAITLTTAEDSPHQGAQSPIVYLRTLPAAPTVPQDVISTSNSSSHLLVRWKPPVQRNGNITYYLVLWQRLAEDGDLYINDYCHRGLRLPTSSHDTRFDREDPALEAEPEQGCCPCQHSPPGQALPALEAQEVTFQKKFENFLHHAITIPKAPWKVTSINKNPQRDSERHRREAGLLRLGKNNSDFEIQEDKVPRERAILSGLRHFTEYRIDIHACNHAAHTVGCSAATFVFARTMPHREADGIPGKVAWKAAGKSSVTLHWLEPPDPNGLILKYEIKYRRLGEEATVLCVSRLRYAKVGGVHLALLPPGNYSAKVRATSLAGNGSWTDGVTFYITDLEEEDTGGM


Key:
[1] = target: T1, insulin receptor-related receptor (IRR), IRR-Fc fusion protein (extracellular region of mouse IRR); test: IRR binding activity by surface plasmon resonance (BIACORE 2000), IRR-Fc binding value minus IR-Fc binding value; conditions: about 1/10 amount of each re-purified specimen (about 10 μg) lyophilized and dissolved in 200 μl of buffer; IR-Fc binding value subtracted from IRR-Fc binding value
Text: Determination of active fractions in the purification of the IRR ligand from a supernatant of cells expressing the IRR ligand including the rat C6 glioma cells or identification of granulins/epithelins or mutants thereof as IRR ligands can be carried out by measuring activity for binding to IRR in a sample. The binding activity to IRR of a sample specimen can be measured by using a surface plasmon resonance (SPR) measuring apparatus, for example, BIACORE (produced by Biacore). Specifically, for example, the extracellular domain of IRR is prepared as a soluble protein and immobilized on a surface of a BIACORE sensor chip. A sample specimen is sent onto the surface of the sensor chip via a micro flow system at a constant flow rate. If a molecule binding to IRR (IRR ligand) is contained in the sample specimen, the mass of the surface sensor chip is increased due to binding between IRR and IRR ligand molecules, and a shift of the SPR signal in proportion to the binding quantity can be detected as a change in the resonance unit (RU). […] When, for example, an insulin receptor (IR) protein is used as a protein other than IRR, IRR-binding activity can be measured more precisely. […]

[2] = target: IRR (Homo sapiens, UniProt P14616); conditions: literature report; cited from earlier work
Sequence of IRR (P14616 27-742 limits assumed, species assumed): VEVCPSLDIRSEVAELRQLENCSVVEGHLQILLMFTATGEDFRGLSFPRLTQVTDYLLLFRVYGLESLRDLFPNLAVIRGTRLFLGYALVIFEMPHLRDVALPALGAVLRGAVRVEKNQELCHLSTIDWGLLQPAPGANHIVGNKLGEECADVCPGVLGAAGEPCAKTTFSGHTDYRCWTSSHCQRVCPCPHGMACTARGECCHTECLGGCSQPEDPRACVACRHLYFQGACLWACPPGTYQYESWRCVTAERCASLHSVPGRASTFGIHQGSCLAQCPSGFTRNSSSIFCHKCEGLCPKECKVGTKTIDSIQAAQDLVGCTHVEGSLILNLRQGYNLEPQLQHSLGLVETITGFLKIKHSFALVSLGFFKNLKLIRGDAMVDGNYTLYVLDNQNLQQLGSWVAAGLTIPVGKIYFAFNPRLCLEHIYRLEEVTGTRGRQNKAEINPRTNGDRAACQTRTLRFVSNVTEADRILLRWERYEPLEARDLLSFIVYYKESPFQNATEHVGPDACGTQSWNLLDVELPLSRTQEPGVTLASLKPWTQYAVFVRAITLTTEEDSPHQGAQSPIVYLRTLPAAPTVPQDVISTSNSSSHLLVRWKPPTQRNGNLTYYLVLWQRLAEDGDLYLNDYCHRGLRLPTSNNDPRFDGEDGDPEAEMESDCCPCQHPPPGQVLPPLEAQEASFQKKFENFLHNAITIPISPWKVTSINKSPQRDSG
Sequence of IRR (P14616 747-1297 limits assumed, species assumed): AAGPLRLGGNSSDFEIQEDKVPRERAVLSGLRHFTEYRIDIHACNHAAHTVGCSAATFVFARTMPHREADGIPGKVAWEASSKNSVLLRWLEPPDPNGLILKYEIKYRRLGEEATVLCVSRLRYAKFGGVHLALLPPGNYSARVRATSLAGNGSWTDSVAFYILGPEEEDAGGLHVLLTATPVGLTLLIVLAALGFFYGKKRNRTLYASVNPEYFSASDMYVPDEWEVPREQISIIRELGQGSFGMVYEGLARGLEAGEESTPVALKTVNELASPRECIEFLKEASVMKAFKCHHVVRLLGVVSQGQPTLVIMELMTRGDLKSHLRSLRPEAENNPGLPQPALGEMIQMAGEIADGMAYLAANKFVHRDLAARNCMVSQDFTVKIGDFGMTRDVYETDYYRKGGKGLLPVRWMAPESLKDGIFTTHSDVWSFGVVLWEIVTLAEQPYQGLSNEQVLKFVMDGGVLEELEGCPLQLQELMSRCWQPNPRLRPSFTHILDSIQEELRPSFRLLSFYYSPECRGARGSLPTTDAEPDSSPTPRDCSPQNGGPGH

binding activity (IRR-specific binding value, SPR resonance units) [1] | Molecule | binding to IRR [2]
21 RU | Peak 2: Re-purified IRR ligand fraction from rat C6 cell supernatant; protein of molecular weight 6135, SEQ ID NO: 4 (epithelin/granulin) (IGCDQHTSCPVGQTCCPSLKGSWACCQLPHAVCCEDRQHCCPAGYTCNVKARTCEKQ; listed as Mus musculus) | –
– | insulin | cannot bind to IRR
– | insulin-like growth factor (IGF)-1 [IGF-1] | cannot bind to IRR
13 RU | Peak 1: Re-purified IRR ligand fraction from rat C6 cell supernatant; proteins of molecular weights 6250 and 6321, SEQ ID NOS: 5 and 6 (epithelin/granulin) (protein, listed as Mus musculus) chain 1: DIGCDQHTSCPVGQTCCPSLKGSWACCQLPHAVCCEDRQHCCPAGYTCNVKARTCEKN chain 2: DIGCDQHTSCPVGQTCCPSLKGSWACCQLPHAVCCEDTQHCCPAGYTCNVKARTCEKDA | –
